Measurements: the nanobody polyreactivity screen of Harvey et al. (2022)

experiment: yeast display, Sf9 membrane polyspecificity reagent, FACS + sequencing; frameworks hold sequencing errors
Method in brief: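 A nanobody's polyreactivity label depends on the gate it was sorted from. Yeast display cells were stained with 10% biotinylated, detergent-solubilized Sf9 membrane reagent for 1 hour at 4 °C, enriched on streptavidin microbeads and sorted by FACS. The low and high (top ~1%) gates were set on anti-HA fluorescence for expression and streptavidin fluorescence for reagent binding.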

Sequence	polyreactivity (PSR sort gate)
QVQLVESGGGLVQAGGSLRLSCAASGSTFPTYAMGWYRQAPGKERELVAAITWSGGSTYYADSVKGRFTISRDNAKNTVYLLMNSLKPEDTAVYYCAKSTGYGRRQKRYDWGQGSQVTVSS	high polyreactivity
QVQLVESGGGLVQAGGSLRLSCAASGSTFPVNAKGWYRPAPGKERQLVATIRWTGGGTYYADSVKGRFTISRDNAKNTVYLQMNSLKPEDTAVYYCAADPPWEWSDYGYDYWGQGTQVTVSS	low polyreactivity
QVQLVESGGGLVQAGGSLRLSCAASGSTFPVYAMGWYRQAPGKERELVAAITSGGSTYYADSVKGRFTISRDNAKNTVYLQMNSLKPEDTAVYYCAAEDSSPAYNHWGHGTQVTVSS	low polyreactivity
QVQLVESGGGLVQAGGSLRLSCAASGSTFPWYDMGWYRQAPGKERELVADISGGTRTYYADSVKGRFTISRDNAKNTVYLQMNSLKPEDTAVYYCAVGYYWNEPLYWYGDFDYWGQGTQVTVSS	high polyreactivity
QVQLVESGGGLVQAGGSLRLSCAASGSTFPYNAMGWYRQAPGKERELVAAISWSGGRTYYADSVKGRFTISRDNAKNTVYLQMNSLKPEDTAVDYCAKAVKQYGFYYWGQGTQVTVSS	high polyreactivity
QVQLVESGGGLVQAGGSLRLSCAASGSTFPYNAMGWYRQAPGKERELVAAITGRGGSTYYADSVKGRFTISRDNAKNTVYLQMNSLKPEDTAVYYCAARYLYLLYYWGQGTQVTVSS	high polyreactivity
QVQLVESGGGLVQAGGSLRLSCAASGSTFPYNTMGSYIQAPGKESELVATIRSRGDSTYFADSVKGRFTISRDNAKNTVYFQMNSLKPEDTAFYYCNADPRTLWWSRPYYSWGQGTQVTVSS	high polyreactivity
QVQLVESGGGLVQAGGSLRLSCAASGSTFPYYAMGWYRQAPGKERELVAAITSSASTYYADSVKGRFTISRDNAKNTVYLQLNSPKPEDTADYYCPVRSPYRLSPWRVGYWGQGTQVTVSS	high polyreactivity
QVQLVESGGGLVQAGGSLRLSCAASGSTFQFYAMGWYRQAPGKERELVAAIRSSDDSTYYADSVKGRFTSSRDNAKNTVYLQMNSLKPEDTAVYYCAAVQDYYGVWYDYWGQGTQVTVSS	high polyreactivity
QVQLVESGGGLVQAGGSLRLSCAASGSTFQFYAMGWYRQAPGKERELVAVITSGDDTNYADSVKGRFTISRDNAKNTVYLQMNSLKPEDTAVYYCAVEYILVYTRVRSYWFDYWGQGTQVTVSS	low polyreactivity
QVQLVESGGGLVQAGGSLRLSCAASGSTFQGYAMGWYRQAPGKERELVAAINYSGGSTYYADSVKGRFTISRDNAKNTVYFQMNSLKPEDTAVYYCAVKLRSRAVTSYGYWGQGTQVTVSS	high polyreactivity
QVQLVESGGGLVQAGGSLRLSCAASGSTFQGYAMGWYRQAPGKERELVARISYTGASTYADSVKGRFTISRDNAKNTVYLQMNSLKPDDTAVYYCNAGGYRYRSYDYWGQGTQVTVSS	high polyreactivity
QVQLVESGGGLVQAGGSLRLSCAASGSTFQLYAMGWYRQAPGKERELVAAISGIGDSTYYADSVKGRFTISRDNAKNTVYLQMNSLKPEDTAVYYCAREFSDGLSGKFDYWGHGTQVTVSS	low polyreactivity
QVQLVESGGGLVQAGGSLRLSCAASGSTFQLYAMGWYRQAPGKESELVASISWSGGSTYYADSVKGRFTISRDNAKNTVYLQMNSLKPEDTAVYYCAADSRLYLRDDYWGQGTQVTVSS	low polyreactivity
QVQLVESGGGLVQAGGSLRLSCAASGSTFQPNAMGWYRQAPGKERELVAAISKSDGRTYYADSVKGRFTISRDNAKNTVYLQMNSLQPEDTAVYNCAADAYWEPKVGFSLFDYWGQGTQVTVSS	low polyreactivity
QVQLVESGGGLVQAGGSLRLSCAASGSTFQPYAMGWYRQAPGKERELVAAITFSGGSTYYADSVKGRFTISRDNAKNTVYLQMNSLKPEDTAVYYCAAYRRPDYGSWGQGTQVTVSS	high polyreactivity
QVQLVESGGGLVQAGGSLRLSCAASGSTFQSKAMGWYRQAPGKERELVAAINSGTSTYYADSVKGRFTISRDNAKNTVYLQMNSLKPEDTAVYYCAADGIWGEYYYSELGDYDYWGQGTQVTVSS	low polyreactivity
